Test results from paper PMC5986797, “Laminin heparin-binding peptides bind to several growth factors and enhance diabetic wound healing” (Nature Communications, 2018).

What was measured:
Settings in all cases: both partners purified
[1] = biological target: T1, recombinant human laminin-521 (human, UniProt O15230 36-3695; P55268 33-1798; P11047 34-1609); experiment: SPR; laminin-521 immobilised by amine coupling on a C1 chip (~2000 RU); GF flown at 20 μL/min in 0.01 M HEPES pH 7.4, 0.15 M NaCl, 0.005% surfactant P20; Langmuir binding kinetics
T1 construct: laminin subunit alpha-5, human; chain told by the isoform's name; laminin subunit beta-2, human; laminin subunit gamma-1, human; also called laminin isoform-521; source: bought: BioLamina (recombinant human, >95% purity); copies: + +

[2] = biological target: T2, recombinant human laminin-211 (human, UniProt P24043 23-3122; P07942 22-1786; P11047 34-1609); experiment: ELISA; plates coated with 50 nM GF or chemokine in PBS; 10 nM laminin isoform in PBS added; bound laminin detected with anti-LAMC1 or anti-LAMA3 polyclonal antibody; A450 signals greater than 0.1 taken as binding; BSA-coated wells as control
T2 construct: laminin subunit alpha-2, human; chain told by the isoform's name; laminin subunit beta-1, human; laminin subunit gamma-1, human; source: bought: BioLamina (recombinant human, >95% purity); copies: + +

[3] = biological target: T3, recombinant human laminin-111 (human, UniProt P25391 18-3075; P07942 22-1786; P11047 34-1609); experiment: as above
T3 construct: laminin subunit alpha-1, human; chain told by the isoform's name; laminin subunit beta-1, human; laminin subunit gamma-1, human; source: bought: BioLamina (recombinant human, >95% purity); copies: + +

[4] = biological target: T4, recombinant laminin LAMA3_(2928–3150) protein (human, UniProt Q16787 2928-3150); experiment: SPR; LAMA3 2928–3150 immobilised by amine coupling on a C1 chip (~1000 RU); GF flown at 20 μL/min in 0.01 M HEPES pH 7.4, 0.15 M NaCl, 0.005% surfactant P20; Langmuir binding kinetics
T4 construct: laminin subunit alpha-3, human, LG domain Ser2928-Cys3150 (linker domain and LG4 domain); also called laminin alpha 3 LG domain recombinant protein; source: HEK-293F, transfected, purified from culture medium (HisTrap, size-exclusion chromatography)
T4 sequence (looked up): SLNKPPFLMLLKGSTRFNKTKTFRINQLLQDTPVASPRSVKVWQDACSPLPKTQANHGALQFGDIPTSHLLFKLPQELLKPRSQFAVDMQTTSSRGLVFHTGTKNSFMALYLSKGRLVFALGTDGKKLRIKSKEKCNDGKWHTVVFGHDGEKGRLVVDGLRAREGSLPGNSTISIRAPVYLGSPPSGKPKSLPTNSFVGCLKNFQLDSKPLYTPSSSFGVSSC

B1: platelet-derived growth factor PDGF-BB (ligand, human, UniProt P01127 82-190, looked up)
chain: SLGSLTIAEPAMIAECKTRTEVFEISRRLIDRTNANFLVWPPCVEVQRCSGCCNNRNVQCRPTQVQLRPVQVRKIEIVRKKPIFKKATVTLEDHLACKCETVAAARPVT
notes: platelet-derived growth factor subunit B, human, bought in its mature form; a homodimer by its name; source: bought: PeproTech; produced in Escherichia coli
Kd [1]: 24.2 nM
binding result [2]: binds
binding result [3]: binds
Kd [4]: 10.2 nM
